US20220193132A1 (NATIONAL RESEARCH COUNCIL OF CANADA, published 2022)
Where a chain is given by its changes, count along the chain named.

T1: EGFRvIII amino acid residues 15 to 37 with Glu29 to Ala mutation (human)
T1 construct: mutation is already in the entry
T1 peptide: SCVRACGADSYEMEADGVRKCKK

T2: EGFRvIII amino acid residues 15 to 37 with Lys37 to Ala mutation (human)
T2 construct: mutation is already in the entry
T2 peptide: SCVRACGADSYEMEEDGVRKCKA

T3: EGFRvIII amino acid residues 15 to 37 with Ser15 to Ala mutation (human)
T3 construct: mutation is already in the entry
T3 peptide: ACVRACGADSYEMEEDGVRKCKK

T4: EGFRvIII amino acid residues 15 to 37 with Asp23 to Ala mutation (human)
T4 construct: mutation is already in the entry
T4 peptide: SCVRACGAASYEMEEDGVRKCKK

T5: EGFRvIII amino acid residues 15 to 37 with Lys34 to Ala mutation (human)
T5 construct: mutation is already in the entry
T5 peptide: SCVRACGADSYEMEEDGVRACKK

T6: EGFRvIII amino acid residues 15 to 37 with Val32 to Ala mutation (human)
T6 construct: mutation is already in the entry
T6 peptide: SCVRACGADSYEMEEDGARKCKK

T7: EGFRvIII amino acid residues 15 to 37 with Gly31 to Ala mutation (human)
T7 construct: mutation is already in the entry
T7 peptide: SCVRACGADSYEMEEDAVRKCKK

T8: EGFRvIII amino acid residues 15 to 37 with Glu28 to Ala mutation (human)
T8 construct: mutation is already in the entry
T8 peptide: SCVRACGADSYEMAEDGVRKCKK

T9: EGFRvIII amino acid residues 15 to 37 with Tyr25 to Ala mutation (human)
T9 construct: mutation is already in the entry
T9 peptide: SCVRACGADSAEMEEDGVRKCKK

T10: EGFRvIII amino acid residues 15 to 37 with Ser24 to Ala mutation (human)
T10 construct: mutation is already in the entry
T10 peptide: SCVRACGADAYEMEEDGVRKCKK

T11: EGFRvIII amino acid residues 15 to 37 with Asp30 to Ala mutation (human)
T11 construct: mutation is already in the entry
T11 peptide: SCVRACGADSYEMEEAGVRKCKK

T12: EGFRvIII amino acid residues 15 to 37 with Cys16 to Ala mutation (human)
T12 construct: mutation is already in the entry
T12 peptide: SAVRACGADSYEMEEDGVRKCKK

T13: EGFRvIII amino acid residues 15 to 37 with Val17 to Ala mutation (human)
T13 construct: mutation is already in the entry
T13 peptide: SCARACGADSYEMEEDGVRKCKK

T14: EGFRvIII amino acid residues 15 to 37 with Lys36 to Ala mutation (human)
T14 construct: mutation is already in the entry
T14 peptide: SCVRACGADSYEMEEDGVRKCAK

T15: EGFRvIII amino acid residues 15 to 37 with Glu26 to Ala mutation (human)
T15 construct: mutation is already in the entry
T15 peptide: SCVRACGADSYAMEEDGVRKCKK

T16: EGFRvIII amino acid residues 15 to 37 with Arg33 to Ala mutation (human)
T16 construct: mutation is already in the entry
T16 peptide: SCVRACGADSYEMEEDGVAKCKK

T17: EGFRvIII fragment amino acid residues 15 to 37, displayed on yeast (human)
T17 construct: also called aa 15-37; fragment 15-37
T17 peptide: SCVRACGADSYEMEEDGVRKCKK

T18: EGFRvIII amino acid residues 15 to 37 with Cys35 to Ala mutation (human)
T18 construct: mutation is already in the entry
T18 peptide: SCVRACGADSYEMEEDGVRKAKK

T19: EGFRvIII amino acid residues 15 to 37 with Gly21 to Ala mutation (human)
T19 construct: mutation is already in the entry
T19 peptide: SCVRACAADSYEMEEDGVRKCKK

T20: EGFRvIII amino acid residues 15 to 37 with Arg18 to Ala mutation (human)
T20 construct: mutation is already in the entry
T20 peptide: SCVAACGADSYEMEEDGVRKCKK

T21: EGFRvIII amino acid residues 15 to 37 with Cys20 to Ala mutation (human)
T21 construct: mutation is already in the entry
T21 peptide: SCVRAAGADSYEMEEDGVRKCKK

B1: F263-4B3 (antibody, V domains shown)
VH: EVQLQQSGPELVKPGSSVKISCKASGYTFTDYNMDWVKQSHGKSLEWIGTINPNNGGTSYNQKFKGKATLTVDKSSNTAYMELRSLTSEDSAVYYCARGYDYDLWFAYWGQGTLVTVSA
VL: EIVLTQSPALMAASPGEKVTITCSVSSSISSSNLHWYQQKSETSPKPWIYGTSNLASGVPVRFSGSGSGTSYSLTISSMEAEDAATYYCQQWSSYPLTFGAGTKLELE
notes: Mouse hybridoma mAb
B2: F263-5D8 (antibody, V domains shown)
VH: B1 VH with E10D, M34I, N55Y, N77S
VL: B1 VL with A9V, L10F, E108K
notes: Mouse hybridoma mAb

Columns and labels:
[1] = biological target: T22, EGFRvIII, full length, overexpressed on glioblastoma cells (human, UniProt P00533 298-623); assay: cell-based or functional assay
[2] = biological target: T22, EGFRvIII, full length, overexpressed on …; assay: cell-based or functional assay; remark: listed apart in the source
[3] = biological target: T1, EGFRvIII amino acid residues 15 to 37 …; assay: yeast display flow cytometry, Myc-normalized;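 note: Anti-EGFRvIII monoclonal antibodies tested by flow cytometry on yeast displaying alanine-substituted fragments, two-color indirect fluorescence with anti-Myc signal tracking fusion protein expression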
Description: (§1) Assessment of the binding of anti-EGFRvIII mAbs to the fusion proteins expressed on yeast cell surface was done by flow cytometry analysis. Briefly, yeast cells were labeled with both the anti-hEGFRvIII mAb and chicken anti-Myc antibody, the latter being used to monitor the level of expression of the fusion protein. Following a wash step, binding of the primary antibodies is probed by a two-color indirect fluorescence labeling using secondary antibodies specific for mouse and chicken antibodies, respectively.
(§2) To further characterize mAb epitopes within the EGFRvIII 15-37 region, an alanine scan of this region was performed, and modified fragments were expressed at the surface of the yeast. […] The resulting peptides were expressed at the surface of the yeast and each anti-EGFRvIII mAbs was tested on the corresponding yeast mutant strain by flow cytometry analysis. Thus, this assay determined the contribution of each amino acid(s) in the monoclonal antibody binding.

[4] = biological target: T2, EGFRvIII amino acid residues 15 to 37 …; assay: yeast display flow cytometry, Myc-normalized;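 note: Anti-EGFRvIII monoclonal antibodies tested by flow cytometry on yeast displaying alanine-substituted fragments, two-color indirect fluorescence with anti-Myc signal tracking fusion protein expression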
Description: as §1, §2

[5] = biological target: T3, EGFRvIII amino acid residues 15 to 37 …; assay: yeast display flow cytometry, Myc-normalized;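 note: Anti-EGFRvIII monoclonal antibodies tested by flow cytometry on yeast displaying alanine-substituted fragments, two-color indirect fluorescence with anti-Myc signal tracking fusion protein expression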
Description: as §1, §2

[6] = biological target: T4, EGFRvIII amino acid residues 15 to 37 …; assay: yeast display flow cytometry, Myc-normalized;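 note: Anti-EGFRvIII monoclonal antibodies tested by flow cytometry on yeast displaying alanine-substituted fragments, two-color indirect fluorescence with anti-Myc signal tracking fusion protein expression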
Description: as §1, §2

[7] = biological target: T5, EGFRvIII amino acid residues 15 to 37 …; assay: yeast display flow cytometry, Myc-normalized
Description: as §1, §2

[8] = biological target: T6, EGFRvIII amino acid residues 15 to 37 …; assay: yeast display flow cytometry, Myc-normalized
Description: as §1, §2

[9] = biological target: T7, EGFRvIII amino acid residues 15 to 37 …; assay: yeast display flow cytometry, Myc-normalized
Description: as §1, §2

[10] = biological target: T8, EGFRvIII amino acid residues 15 to 37 …; assay: yeast display flow cytometry, Myc-normalized
Description: as §1, §2

[11] = biological target: T9, EGFRvIII amino acid residues 15 to 37 …; assay: yeast display flow cytometry, Myc-normalized
Description: as §1, §2

[12] = biological target: T23, EGFRvIII amino acid residues 15 to 37 with Met27 to Ala mutation (human); assay: yeast display flow cytometry, Myc-normalized
T23 construct: mutation is already in the entry
Description: as §1, §2

[13] = biological target: T10, EGFRvIII amino acid residues 15 to 37 …; assay: yeast display flow cytometry, Myc-normalized
Description: as §1, §2

[14] = biological target: T11, EGFRvIII amino acid residues 15 to 37 …; assay: yeast display flow cytometry, Myc-normalized
Description: as §1, §2

[15] = biological target: T12, EGFRvIII amino acid residues 15 to 37 …; assay: yeast display flow cytometry, Myc-normalized
Description: as §1, §2

[16] = biological target: T13, EGFRvIII amino acid residues 15 to 37 …; assay: yeast display flow cytometry, Myc-normalized
Description: as §1, §2

[17] = biological target: T14, EGFRvIII amino acid residues 15 to 37 …; assay: yeast display flow cytometry, Myc-normalized
Description: as §1, §2

[18] = biological target: T15, EGFRvIII amino acid residues 15 to 37 …; assay: yeast display flow cytometry, Myc-normalized
Description: as §1, §2

[19] = biological target: T16, EGFRvIII amino acid residues 15 to 37 …; assay: yeast display flow cytometry, Myc-normalized
Description: as §1, §2

[20] = biological target: T17, EGFRvIII fragment amino acid residues …; assay: yeast surface display, flow cytometry
Description: as §1

[21] = biological target: T24, recombinant human EGFRvIII protein (extracellular domain), native (human, UniProt P00533 298-623); assay: ELISA Exp 1, mAb supernatant
T24 construct: also called hEGFRvIII

[22] = biological target: T25, recombinant human EGFRvIII protein (extracellular domain), denatured (human, UniProt P00533 298-623); assay: ELISA Exp 1, mAb supernatant
T25 construct: Same protein as m21 after 95 C for 5 min in PBS with 40 mM DTT (denatured, reduced); also called EGFRvIII Denatured

[23] = biological target: T26, recombinant human wild type EGFR protein (extracellular domain), native (human, UniProt P00533 25-645); assay: ELISA Exp 1, mAb supernatant
T26 construct: also called wt EGFR; EGFR WT

[24] = biological target: T27, recombinant human wild type EGFR protein (extracellular domain), denatured (human, UniProt P00533 25-645); assay: ELISA Exp 1, mAb supernatant
T27 construct: Same protein as m23 after 95 C for 5 min in PBS with 40 mM DTT (denatured, reduced); also called wt EGFR Denatured

[25] = biological target: T18, EGFRvIII amino acid residues 15 to 37 …; assay: yeast display flow cytometry, alanine scan
Description: as §1, §2

[26] = biological target: T19, EGFRvIII amino acid residues 15 to 37 …; assay: yeast display flow cytometry, alanine scan
Description: as §1, §2

[27] = biological target: T20, EGFRvIII amino acid residues 15 to 37 …; assay: yeast display flow cytometry, alanine scan
Description: as §1, §2

[28] = biological target: T21, EGFRvIII amino acid residues 15 to 37 …; assay: yeast display flow cytometry, alanine scan
Description: as §1, §2

[29] = biological target: T24, recombinant human EGFRvIII protein …; assay: ELISA Exp 2, purified mAb 1 ug/ml;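 note: ELISA of purified mAb binding to plate-coated antigen, native or heat/DTT-denatured, with pNPP substrate developed for 30 min and incubations at room temperature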
[30] = biological target: T25, recombinant human EGFRvIII protein …; assay: ELISA Exp 2, purified mAb 1 ug/ml;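 note: ELISA of purified mAb binding to plate-coated antigen, native or heat/DTT-denatured, with pNPP substrate developed for 30 min and incubations at room temperature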
[31] = biological target: T26, recombinant human wild type EGFR …; assay: ELISA Exp 2, purified mAb 1 ug/ml;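 note: ELISA of purified mAb binding to plate-coated antigen, native or heat/DTT-denatured, with pNPP substrate developed for 30 min and incubations at room temperature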
[32] = biological target: T27, recombinant human wild type EGFR …; assay: ELISA Exp 2, purified mAb 1 ug/ml;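 note: ELISA of purified mAb binding to plate-coated antigen, native or heat/DTT-denatured, with pNPP substrate developed for 30 min and incubations at room temperature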
[33] = biological target: T22, EGFRvIII, full length, overexpressed on …; assay: flow cytometry dose-response on U87MG-EGFRvIII cells, apparent Kd

T23 sequence (peptide, as listed by the source, change not shown): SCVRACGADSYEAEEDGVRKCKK

Binder | % internalization (pHrodo surrogate assay, vs 225 mAb) [1] [%] | % survival (DM1 secondary-conjugate ADC surrogate assay, vs mouse IgG) [2] [%] | % of binding vs wild-type fragment 15-37 [3] [%] | % of binding vs wild-type fragment 15-37 [4] [%] | % of binding vs wild-type fragment 15-37 [5] [%] | % of binding vs wild-type fragment 15-37 [6] [%] | % of binding vs wild-type fragment 15-37 [7] [%] | % of binding vs wild-type fragment 15-37 [8] [%] | % of binding vs wild-type fragment 15-37 [9] [%] | % of binding vs wild-type fragment 15-37 [10] [%] | % of binding vs wild-type fragment 15-37 [11] [%] | % of binding vs wild-type fragment 15-37 [12] [%] | % of binding vs wild-type fragment 15-37 [13] [%] | % of binding vs wild-type fragment 15-37 [14] [%] | % of binding vs wild-type fragment 15-37 [15] [%] | % of binding vs wild-type fragment 15-37 [16] [%] | % of binding vs wild-type fragment 15-37 [17] [%] | % of binding vs wild-type fragment 15-37 [18] [%] | % of binding vs wild-type fragment 15-37 [19] [%] | binding result [20] | other results
B1 | 61 | 83 | 71.6 | 170 | 94.7 | 94.1 | 136 | 92.4 | 49.9 | 86.7 | 98.8 | 101 | 194 | 94.3 | 169 | 146 | 99.2 | 102 | 68.4 | binds | ELISA absorbance 405 nm [21]: 1.5 A405; ELISA absorbance 405 nm [22]: 1.74 A405; ELISA absorbance 405 nm [23]: 1.09 A405; ELISA absorbance 405 nm [24]: 0.041 A405; binding result [25]: no binding (tested: 0-15% of wild-type binding); binding result [26]: no binding (tested: 0-15% of wild-type binding); binding result [27]: no binding (tested: 0-15% of wild-type binding); binding result [28]: no binding (tested: 0-15% of wild-type binding); ELISA absorbance 405 nm [29]: 1.19 A405; ELISA absorbance 405 nm [30]: 0.603 A405; ELISA absorbance 405 nm [31]: 0.066 A405; ELISA absorbance 405 nm [32]: 0.003 A405; Kd [33]: 21.2 nM
B2 | 64 | 69 | 77.3 | 194 | 93.1 | 106 | 151 | 95.2 | 40.4 | 81.6 | 108 | 96.5 | 246 | 80.4 | 154 | 144 | 97.9 | 37.9 | 71.8 | binds | ELISA absorbance 405 nm [21]: 1.43 A405; ELISA absorbance 405 nm [22]: 1.86 A405; ELISA absorbance 405 nm [23]: 1.38 A405; ELISA absorbance 405 nm [24]: 0.049 A405; binding result [25]: no binding (tested: 0-15% of wild-type binding); binding result [26]: no binding (tested: 0-15% of wild-type binding); binding result [27]: no binding (tested: 0-15% of wild-type binding); binding result [28]: no binding (tested: 0-15% of wild-type binding); ELISA absorbance 405 nm [29]: 1.49 A405; ELISA absorbance 405 nm [30]: 0.848 A405; ELISA absorbance 405 nm [31]: 0.159 A405; ELISA absorbance 405 nm [32]: 0 A405; Kd [33]: 19.7 nM
